From publication PMC6081378

Target: rHA1_(1-326), recombinant hemagglutinin HA1 fragment (residues 1-326) of influenza A virus H1N1 strain A/California/04/2009 (influenza A virus subtype H1N1 strain A/California/04/2009)
Experiment: SEC

Substance “rHA1_(1-326), recombinant hemagglutinin HA1 fragment (residues 1-326) of influenza A virus H1N1 strain A/California/04/2009 (domain or fragment)” has a percent of the protein as dimers and trimers of 70.5%.
